Several values for one entry are separate records, joined by “and”; a condition that tells them apart may be missing. Equal values may be shown once. Entries after “also recorded” stand apart in the source; their conditions may differ.
Experiments:
[1] = system: post-surgical patients; assay: AMCA treatment of post-surgical hyperglycemia in patients; type: in vivo, human; conditions: 10 mg/kg i.v. BID, four post-surgical patients, blood glucose before 10-12 mmol/L
[2] = system: db/db mice; assay: Blood glucose of db/db mice after injection of test substance; type: in vivo, mouse; conditions: for active duration of anti-hyperglycemic effect in vivo: i.v. injection, hyperglycemic db/db mice; for anti-hyperglycemic effect (blood glucose): peripheral/i.v. injection, dose not stated
[3] = system: db/db mice; assay: Food intake and body weight of db/db mice; type: in vivo, mouse
[4] = system: db/db mice; assay: Serum nesfatin-1 / pladin in db/db after i.v. plasmin inhibitor (HPLC); type: in vivo, mouse
Description: Hypothalamus in acetic acid supplemented with protease inhibitor cocktail tablets (Roche, Indianapolis, Ind.) was homogenized, sonicated and heated at 95° C. for 15 minutes. The samples were then centrifuged at 13,200 rpm at 4° C. for 30 minutes. The supernatants were finally collected as their protein contents were determined by the Bradford assay (Thermo-Fisher Sci. Rockford, Ill.). Mouse serum was freshly prepared by drawing blood through ophthalmectomy. About […] hypothalamic total proteins or 25 μL serum were analyzed with Waters Delta 600E/2487/717 HPLC system using an analytical C18 reverse phase column (4.6×250 mm/5 μm, Hambon, Zhangjiagang, CN). Nesfatin-1 was eluted with a linear gradient from 20%-40% solvent B (solvent A: water with 0.1% trifluoroacetic acid, solvent B: acetonitrile with 0.1% trifluoroacetic acid) for 20 minutes at the flow rate of 1 ml/minute. The purified nesfatin-1 was used as the standard to determine the retention time and plot the standard curve. The fraction collected at the retention time was sent for the mass spectrometry analysis.
Mouse serum was freshly prepared by drawing blood through ophthalmectomy. The sera of plg^−/−lepr^−/− and db/db mice were directly analyzed with Waters Delta 600E/2487/717 HPLC System using a C18 reverse phase column (4.6×250 mm, 5 μm, Hambon, Zhangjiagang, CN) and eluted with a linear gradient from 20%-40% acetonitrile in 0.1% TFA for 20 minutes at the flow rate of 1 ml/minute (Enriori et al., 2007). Compared with db/db mice, the divergent fractions eluted in plg^−/−lepr^−/− mice were collected for the determination of molecular weight using the Applied Biosystems 4800 Proteomics Analyzer (Applied Biosystems). The MS spectra were acquired in the liner mode at a range of peptide mass from 3,000 to 20,000 Dalton.

[5] = system: rats; conditions: injected directly into the brain of rats; cited from earlier work
[6] = system: rat; assay: 0-3 h food intake of rat after i.p. and i.c.v. injection; type: in vivo; conditions: for food intake: 0-3 h
[7] = Clearance and half-life of i.v. peptide in circulation; type: in vivo, mouse; conditions: for clearance from circulation in plg−/− versus wild-type (plg+/+) mice: i.v. injection
[8] = system: mice including db/db; assay: Blood insulin in mice after rPladin; type: in vivo, mouse
[9] = system: Streptozotocin-induced type-1 diabetic C57BL/6J mice; assay: Streptozotocin-induced type-1 diabetic mice, blood glucose; type: in vivo, mouse
Description: Male C57BL/6J mice (10 weeks) were given intraperitoneal injections of Streptozotocin (STZ) in sodium citrate (pH 4.5) on two consecutive days (100 mg/kg/day). Blood glucose was measured by tail vein sampling using the glucose oxidase enzymatic test. Diabetes was defined as a morning blood glucose reading of >16 mM after STZ. When blood glucose levels exceeded 30 mM, diabetic mice were given 16 ng of porcine insulin (Wangbang, Xuzhou, CN) immediately to prevent the blood glucose being dangerous every second day to prevent weight loss while maintaining blood glucose levels within the hyperglycemic range (16-30 mM). Nesfatin-1 (100 μg/mouse) was i.v. injected either alone or combined with s.c. insulin (2 ng/mouse) to STZ-induced type-I diabetic mice.
Male C57BL/6J mice (10 weeks) were intraperitoneally injected with 100 μg/g/day STZ in 100 mmol/L sodium citrate (pH 4.5) on two consecutive days. Blood glucose was measured by tail vein sampling using the glucose oxidase enzymatic test. When the fasting blood glucose reading was over 16 mmol/L after the STZ injection, the mice were considered to be type-1 diabetic. […]

[10] = system: lean wild-type mice; assay: Blood glucose of lean wild-type mice after i.v. injection; type: in vivo, mouse; conditions: 10 nmol i.v.
Description: Without anesthesia, mice were placed into a restricting tube. The testing substance such as nesfatin-1 or rPladin was i.v. injected via mice tail vein with a total volume of 150 μL. After that mice were returned to the cages with food and water available freely. In the i.p. injection experiment, mice without anesthesia were injected with the testing substances directly into the peritoneal with a total volume of 200 μL.

[11] = system: wild-type mice; assay: Intravenous glucose tolerance test (IV-GTT / IGTT) in wild-type mice; type: in vivo, mouse; conditions: i.v. glucose 1.5 g/kg
Description: In the intravenous (i.v.) glucose tolerance test (IV-GTT), mice injected intravenously with 1 mg or 1.5 mg glucose per gram of body weight and placed in clean cages. Blood glucose was measured immediately before and at 5, 10, 20, 30, 60 and 120 minutes after the injection of glucose.

[12] = target: plasmin (Homo sapiens, UniProt P00747); assay: Incubation with plasmin in vitro (proteolysis); type: biochemical; conditions: for proteolysis by plasmin: incubated with plasmin in vitro
Text: The recovery of hypothalamic nesfatin-1 in plg^−/−lepr^−/− was consistent to its normalization in food intake and body weight. Fasted mice always had less nesfatin-1 in hypothalamus than their freely feeding counterparties (FIG. 2b). Furthermore, plasminogen deficiency provided a unique approach to study the chronic effect of elevated nesfatin-1 in hyperphagic obese animals, which was impossible for the i.c.v. or i.p. administration due to the short half-time of nesfatin-1. Consequently, agrp and npy were found reduced in plg^−/−lepr^−/−, while pomc was elevated compared with plg^+/+lepr^−/− (FIG. 3), contradicting to the previous report that i.c.v. nesfatin-1 didn't alter the expression of pomc, npy and agrp. Consistent to the present finding, the same group reported the up-regulation of pomc by i.p. nesfatin-1 in NTS recently.
Carefully examining the amino acid sequence of pladin (SEQ ID NO: 23), it has several putative cleavage sites by plasmin (FIG. 11A).

[13] = system: rats; conditions: cited from earlier work
[14] = i.c.v. or i.p. injection; cited from earlier work
[15] = blood-to-brain and brain-to-blood, nonsaturable system; cited from earlier work
[16] = in circulation, Pan et al., 2007, Price et al.; cited from earlier work
[17] = system: ob/ob mice; assay: Blood lipid analysis in ob/ob mice after i.v. injection; type: in vivo, mouse; conditions: 100 ug i.v., 3 hours after injection
Description: One hundred ug Nesfatin-1 was injected into the tail vein of ob/ob mice. Blood samples were taken 3 hours after the injection for lipid analysis.

[18] = i.v. plasmin inhibitor to db/db (AMCA 15 mg/day once daily for three days)
[19] = i.c.v. injection (25 pmol), db/db

Chain of plasmin (P00747 581-810 limits assumed, species assumed): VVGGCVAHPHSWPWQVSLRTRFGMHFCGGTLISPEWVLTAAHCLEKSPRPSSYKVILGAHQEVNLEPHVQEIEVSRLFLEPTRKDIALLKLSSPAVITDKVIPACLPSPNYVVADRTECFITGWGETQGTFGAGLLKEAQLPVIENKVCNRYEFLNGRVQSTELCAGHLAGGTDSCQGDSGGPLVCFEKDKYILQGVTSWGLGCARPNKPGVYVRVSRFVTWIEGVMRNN
Chain of plasmin (P00747 97-580 partner limits assumed, species assumed): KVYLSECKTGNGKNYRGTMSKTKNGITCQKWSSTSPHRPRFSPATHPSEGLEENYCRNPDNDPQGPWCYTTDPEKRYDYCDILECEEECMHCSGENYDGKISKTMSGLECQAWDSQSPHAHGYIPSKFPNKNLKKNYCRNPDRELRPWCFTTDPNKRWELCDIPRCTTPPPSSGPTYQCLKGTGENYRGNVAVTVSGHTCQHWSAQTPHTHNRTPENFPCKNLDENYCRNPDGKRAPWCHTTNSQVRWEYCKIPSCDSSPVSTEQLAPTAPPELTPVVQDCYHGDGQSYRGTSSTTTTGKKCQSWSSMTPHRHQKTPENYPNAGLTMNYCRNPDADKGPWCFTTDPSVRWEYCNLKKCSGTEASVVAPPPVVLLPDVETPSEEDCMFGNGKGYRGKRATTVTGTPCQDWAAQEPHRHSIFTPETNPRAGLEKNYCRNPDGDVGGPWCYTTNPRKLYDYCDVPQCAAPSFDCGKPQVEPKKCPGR

NC[C@H]1CC[C@H](C(=O)O)CC1 [AMCA, tranexamic acid]
blood glucose after treatment [1]: 6.8 to 9.2 mmol/L
fasting blood glucose ([2]; once-daily administration for 10 weeks since 2 weeks old, db/db): reduced significantly
body weight [3, 18]: reduction
food intake [3, 18]: reduction
serum pladin ([4]; 10 minutes after i.v. 15 mg): increased
circulating (serum) nesfatin-1 ([4]; 30 minutes after i.v. injection): increased

B1: NUCB2: hypothalamus-secreted protein containing 396 amino acids (protein, UniProt P80303 25-420, looked up)
Nucleobindin-2: VPIDIDKTKVQNIHPVESAKIEPPDTGLYYDEYLKQVIDVLETDKHFREKLQKADIEEIKSGRLSKELDLVSHHVRTKLDELKRQEVGRLRMLIKAKLDSLQDIGMDHQALLKQFDHLNHLNPDKFESTDLDMLIKAATSDLEHYDKTRHEEFKKYEMMKEHERREYLKTLNEEKRKEEESKFEEMKKKHENHPKVNHPGSKDQLKEVWEETDGLDPNDFDPKTFFKLHDVNSDGFLDEQELEALFTKELEKVYDPKNEEDDMVEMEEERLRMREHVMNEVDTNKDRLVTLEEFLKATEKKEFLEPDSWETLDQQQFFTEEELKEYENIIALQENELKKKADELQKQKEELQRQHDQLEAQKLEYHQVIQQMEQKKLQQGIPPSGPAGELKFEPHI
anorexia and body weight [5]: promotes anorexia and decreases body weight

B2: TKVHNTEPVENARIEPPDTGLYYDEYLKQVIEVLETDPHFREK LQKADIEEIRSGRLSQELDLVSHKVR (protein)
chain: TKVHNTEPVENARIEPPDTGLYYDEYLKQVIEVLETDPHFREKLQKADIEEIRSGRLSQELDLVSHKVR
modifications: amino acids by MALDI-TOF/TOF with Trypsic Peptides
food intake ([6]; 25 pmol i.c.v. per rat): significantly inhibited food intake
food intake ([6]; 30 nmol i.p. per rat): significantly inhibited food intake
inhibition of food intake relative to nesfatin-1 ([6]; i.v., i.p. and i.c.v. administration): As potent as nesfatin-1; also recorded: same extent of inhibition in food intake as nesfatin-1
half-life in circulation ([7]; data not shown): less than 10 minutes
clearance from circulation in plg−/− versus wild-type (plg+/+) mice [7]: cleared much slower in plg^−/− than wild-type mice
insulin ([8]; i.c.v. injection, db/db mice): could not affect blood glucose and insulin
blood insulin ([8]; i.v. administration, mice including db/db): did not significantly affect
blood glucose ([2]; 10 nmol i.v., freely fed db/db): significantly reduced blood glucose
blood glucose [2, 19]: had no effect on the high levels of blood glucose; also recorded: could not affect blood glucose and insulin
active duration of anti-hyperglycemic effect in vivo [2]: 6 h and > 6 h
anti-hyperglycemic effect (blood glucose) ([2]; db/db): significantly reduced blood glucose
anti-hyperglycemic effect after incubation with plasmin ([2]; plasmin digested rPladin, db/db (FIG. 11C)): lost
blood glucose ([9]; 10 nmol per mouse i.v. alone or with s.c. insulin 2 ng/mouse): lowered by rPladin only when insulin was also subcutaneously injected
blood glucose [10]: but not in lean wild-type
food intake ([3]; 25 pmol i.c.v., db/db mice): significantly inhibited food intake
uptake of blood sugar ([11]; 10 nmol): significantly enhanced the uptake of blood sugar
proteolysis by plasmin [12]: rapidly degraded; also recorded: completely digested by plasmin

B3: nesfatin-1: 82 amino-acid fragment of nucb2 (mouse, SEQ ID NO: 18), recombinant, produced in E. coli (protein)
peptide: VPIDVDKTKVHNTEPVENARIEPPDTGLYYDEYLKQVIEVLETDPHFREKLQKADIEEIRSGRLSQELDLVSHKVRTRLDEL
neuropsychological effect [13]: increasing anxiety and fear-related behaviors
clearance from circulation in plg−/− versus wild-type (plg+/+) mice [7]: cleared much slower in plg^−/− than plg^+/+ mice
food intake and body weight [14]: inhibits food intake and thereby reduces body weight
crossing of the blood-brain barrier [15]: crosses the Blood Brain Barrier
blood glucose ([2]; 10 nmol i.v., freely fed db/db): reduced blood glucose
blood glucose ([2]; 100 μg i.v., freely fed db/db): significantly reduced blood glucose
blood glucose [2, 19]: had no effect on the high levels of blood glucose; also recorded: little diabetic improvement
active duration of anti-hyperglycemic effect in vivo [2]: > 6 h
anti-hyperglycemic effect (blood glucose) ([2]; db/db): significantly reduced blood glucose
blood glucose ([9]; 100 μg/mouse i.v. alone or with s.c. insulin 2 ng/mouse): decreased only when nesfatin-1 was injected with s.c. insulin
half-life of nesfatin-1 [16]: 9 to 10 min and 10 min
food intake ([3]; 25 pmol i.c.v., db/db mice): significantly inhibited food intake
uptake of blood sugar ([11]; 100 μg): significantly enhanced the uptake of blood sugar
HDL in blood [17]: unaffected
LDL in blood [17]: significantly reduced
total cholesterol in blood [17]: significantly reduced
triglyceride in blood [17]: significantly reduced
time to complete digestion by plasmin ([12]; in vitro, FIG. 1b): ≤ 2 h
proteolysis by plasmin [12]: rapidly degraded
